Measurements reported in IntAct's records for PubMed 31515488.

B1: Serpin I2 (Homo sapiens), O75830 (parent)
chain: MDTIFLWSLLLLFFGSQASRCSAQKNTEFAVDLYQEVSLSHKDNIIFSPLGITLVLEMVQLGAKGKAQQQIRQTLKQQETSAGEEFFVLKSFFSAISEKKQEFTFNLANALYLQEGFTVKEQYLHGNKEFFQSAIKLVDFQDAKACAEMISTWVERKTDGKIKDMFSGEEFGPLTRLVLVNAIYFKGDWKQKFRKEDTQLINFTKKNGSTVKIPMMKALLRTKYGYFSESSLNYQVLELSYKGDEFSLIIILPAEGMDIEEVEKLITAQQILKWLSEMQEEEVEISLPRFKVEQKVDFKDVLYSLNITEIFSGGCDLSGITDSSEVYVSQVTQKVFFEINEDGSEAATSTGIHIPVIMSLAQSQFIANHPFLFIMKHNPTESILFMGRVTNPDTQEIKGRDLDSL
B2: Notch homolog 2 N-terminal-like protein A (Homo sapiens), Q7Z3S9 (parent)
chain: MCVTYHNGTGYCKCPEGFLGEYCQHRDPCEKNRCQNGGTCVAQAMLGKATCRCASGFTGEDCQYSTSHPCFVSRPCLNGGTCHMLSRDTYECTCQVGFTGKECQWTDACLSHPCANGSTCTTVANQFSCKCLTGFTGQKCETDVNECDIPGHCQHGGTCLNLPGSYQCQCLQGFTGQYCDSLYVPCAPSPCVNGGTCRQTGDFTFECNCLPETVRRGTELWERDREVWNGKEHDEN
partner: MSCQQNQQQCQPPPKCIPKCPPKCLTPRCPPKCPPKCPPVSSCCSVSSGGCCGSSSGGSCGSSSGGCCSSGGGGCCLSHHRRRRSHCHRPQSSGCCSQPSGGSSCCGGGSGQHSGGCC
B3: Calcium-binding and coiled-coil domain-containing protein 2 (Homo sapiens), Q13137 (parent)
chain: MEETIKDPPTSAVLLDHCHFSQVIFNSVEKFYIPGGDVTCHYTFTQHFIPRRKDWIGIFRVGWKTTREYYTFMWVTLPIDLNNKSAKQQEVQFKAYYLPKDDEYYQFCYVDEDGVVRGASIPFQFRPENEEDILVVTTQGEVEEIEQHNKELCKENQELKDSCISLQKQNSDMQAELQKKQEELETLQSINKKLELKVKEQKDYWETELLQLKEQNQKMSSENEKMGIRVDQLQAQLSTQEKEMEKLVQGDQDKTEQLEQLKKENDHLFLSLTEQRKDQKKLEQTVEQMKQNETTAMKKQQELMDENFDLSKRLSENEIICNALQRQKERLEGENDLLKRENSRLLSYMGLDFNSLPYQVPTSDEGGARQNPGLAYGNPYSGIQESSSPSPLSIKKCPICKADDICDHTLEQQQMQPLCFNCPICDKIFPATEKQIFEDHVFCHSL
partner: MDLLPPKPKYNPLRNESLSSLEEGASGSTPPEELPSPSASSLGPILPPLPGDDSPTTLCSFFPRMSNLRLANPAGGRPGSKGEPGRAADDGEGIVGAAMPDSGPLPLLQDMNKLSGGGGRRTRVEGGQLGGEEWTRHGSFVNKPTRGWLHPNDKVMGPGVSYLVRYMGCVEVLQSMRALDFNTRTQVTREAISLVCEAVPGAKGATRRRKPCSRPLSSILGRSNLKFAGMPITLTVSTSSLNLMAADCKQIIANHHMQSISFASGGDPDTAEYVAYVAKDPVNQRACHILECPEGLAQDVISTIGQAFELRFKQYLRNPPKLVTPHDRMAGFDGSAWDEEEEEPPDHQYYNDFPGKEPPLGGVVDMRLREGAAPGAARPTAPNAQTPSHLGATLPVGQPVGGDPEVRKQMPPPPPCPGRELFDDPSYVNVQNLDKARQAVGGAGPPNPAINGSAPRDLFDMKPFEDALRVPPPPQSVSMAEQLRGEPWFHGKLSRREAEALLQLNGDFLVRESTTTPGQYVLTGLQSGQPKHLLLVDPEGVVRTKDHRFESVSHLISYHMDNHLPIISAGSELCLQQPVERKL
B4: Putative RNA-binding protein Luc7-like 2 (Homo sapiens), Q9Y383 (parent)
chain: MSAQAQMRAMLDQLMGTSRDGDTTRQRIKFSDDRVCKSHLLNCCPHDVLSGTRMDLGECLKVHDLALRADYEIASKEQDFFFELDAMDHLQSFIADCDRRTEVAKKRLAETQEEISAEVAAKAERVHELNEEIGKLLAKVEQLGAEGNVEESQKVMDEVEKARAKKREAEEVYRNSMPASSFQQQKLRVCEVCSAYLGLHDNDRRLADHFGGKLHLGFIEIREKLEELKRVVAEKQEKRNQERLKRREEREREEREKLRRSRSHSKNPKRSRSREHRRHRSRSMSRERKRRTRSKSREKRHRHRSRSSSRSRSRSHQRSRHSSRDRSRERSKRRSSKERFRDQDLASCDRDRSSRDRSPRDRDRKDKKRSYESANGRSEDRRSSEEREAGEI
partner: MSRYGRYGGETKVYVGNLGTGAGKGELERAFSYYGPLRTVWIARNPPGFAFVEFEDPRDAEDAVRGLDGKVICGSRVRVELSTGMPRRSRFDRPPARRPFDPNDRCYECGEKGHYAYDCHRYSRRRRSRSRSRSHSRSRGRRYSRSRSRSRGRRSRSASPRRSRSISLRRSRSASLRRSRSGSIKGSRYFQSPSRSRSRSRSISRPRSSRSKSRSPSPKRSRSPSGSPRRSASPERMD
B5: "N-acyl-aromatic-L-amino acid amidohydrolase (carboxylate-forming)" (Homo sapiens), Q96HD9 (parent)
chain: MCSLPVPREPLRRVAVTGGTHGNEMSGVYLARHWLHAPAELQRASFSAVPVLANPAATSGCRRYVDHDLNRTFTSSFLNSRPTPDDPYEVTRARELNQLLGPKASGQAFDFVLDLHNTTANMGTCLIAKSSHEVFAMHLCRHLQLQYPELSCQVFLYQRSGEESYNLDSVAKNGLGLELGPQPQGVLRADIFSRMRTLVATVLDFIELFNQGTAFPAFEMEAYRPVGVVDFPRTEAGHLAGTVHPQLQDRDFQPLQPGAPIFQMFSGEDLLYEGESTVYPVFINEAAYYEKGVAFVQTEKFTFTVPAMPALTPAPSPAS
partner: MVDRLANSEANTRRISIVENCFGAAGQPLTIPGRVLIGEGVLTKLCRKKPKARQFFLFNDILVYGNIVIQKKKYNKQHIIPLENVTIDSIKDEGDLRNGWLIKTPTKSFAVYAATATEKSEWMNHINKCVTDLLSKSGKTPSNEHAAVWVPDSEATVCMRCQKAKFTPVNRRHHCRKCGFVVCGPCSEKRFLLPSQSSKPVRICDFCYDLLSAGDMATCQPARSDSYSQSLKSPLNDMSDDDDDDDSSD
B6: Fibronectin type III and SPRY domain-containing protein 2 (Homo sapiens), A1L4K1 (parent)
chain: MEEESGEELGLDRSTPKDFHFYHMDLYDSEDRLHLFPEENTRMRKVVQAEMANESRGAGDGKAQRDLQEEVDELVHLYGLEDDHELGDEFVDENIPRTGVSEYPPYMMKRRDPAREQRDWRLSGEAAEAEDLGFGGWGSAGQCQDLREAYRYTHGRASEEYECYVIPEEEDEEEAADVFCVTCKTPIRAFQKVFDEHKEHEVIPLNEALESAKDEIHKNMYKLEKQIIEMENFANHLEEVFITVEENFGKQEQNFESHYNEILETLAQKYEEKIQALGEKKKEKLEALYGQLVSCGENLDTCKELMETIEEMCHEEKVDFIKDAVAMADRLGKFLKTKTDVEISAQPEFEDQTLDFSDVEQLMGSINTIPAPSAPVINPQVPNSATGSSVRVCWSLYSDDTVESYQLSYRPVQDSSPGTDQAEFTVTVKETYCSVTNLVPNTQYEFWVTAHNRAGPSPSSERAVYMTAPSPPIIKTKEIRSCEEAVLICWESGNLNPVDSYTVELTQAESPEASGVTESVVGIPTCESVVQLQPGRSYIIYVRALNMGGPSVRSEPATVHTIGSYFRLNKDTCHPWLTISEDGLTAVRSERRTPARELSPSDTHFTRCVAVMGNLIPVRGHHYWEVEVDEHLDYRVGVAFADVRKQEDLGANCLSWCMRHTFASSRHKYEFLHNRTTPDIRITVPPKKIGILLDYEHSKLSFFNVDLSQHLYTFSCQLHEFVHPCFSLEKPGCLKVHNGISMPKHVTFY
B7: Notch homolog 2 N-terminal-like protein A (Homo sapiens), Q7Z3S9 (parent)
chain: B2 chain
partner: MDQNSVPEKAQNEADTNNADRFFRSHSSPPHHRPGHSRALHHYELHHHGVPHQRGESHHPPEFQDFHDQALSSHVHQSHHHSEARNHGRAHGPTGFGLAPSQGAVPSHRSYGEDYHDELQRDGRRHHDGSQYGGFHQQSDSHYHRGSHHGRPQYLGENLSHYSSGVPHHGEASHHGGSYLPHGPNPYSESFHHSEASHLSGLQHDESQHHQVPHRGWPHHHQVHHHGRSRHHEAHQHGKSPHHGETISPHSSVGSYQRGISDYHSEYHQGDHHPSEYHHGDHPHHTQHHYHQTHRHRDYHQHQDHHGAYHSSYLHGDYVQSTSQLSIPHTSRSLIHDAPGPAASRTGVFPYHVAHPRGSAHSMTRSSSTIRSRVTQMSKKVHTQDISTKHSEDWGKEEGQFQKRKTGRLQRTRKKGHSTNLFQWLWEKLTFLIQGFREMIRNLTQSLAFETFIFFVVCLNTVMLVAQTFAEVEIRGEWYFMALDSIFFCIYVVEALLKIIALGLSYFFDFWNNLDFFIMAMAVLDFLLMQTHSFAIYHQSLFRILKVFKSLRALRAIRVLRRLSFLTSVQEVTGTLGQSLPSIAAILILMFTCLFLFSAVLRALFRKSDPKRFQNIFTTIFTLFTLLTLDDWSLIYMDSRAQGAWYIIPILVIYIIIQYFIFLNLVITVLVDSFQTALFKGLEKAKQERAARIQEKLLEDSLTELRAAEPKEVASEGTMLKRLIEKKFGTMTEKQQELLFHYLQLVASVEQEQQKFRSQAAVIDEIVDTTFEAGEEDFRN
B8: Geminin (Homo sapiens), O75496 (parent)
chain: MNPSMKQKQEEIKENIKNSSVPRRTLKMIQPSASGSLVGRENELSAGLSKRKHRNDHLTSTTSSPGVIVPESSENKNLGGVTQESFDLMIKENPSSQYWKEVAEKRRKALYEALKENEKLHKEIEQKDNEIARLKKENKELAEVAEHVQYMAELIERLNGEPLDNFESLDNQEFDSEEETVEDSLVEDSEIGTCAEGTVSSSTDAKPCI
partner: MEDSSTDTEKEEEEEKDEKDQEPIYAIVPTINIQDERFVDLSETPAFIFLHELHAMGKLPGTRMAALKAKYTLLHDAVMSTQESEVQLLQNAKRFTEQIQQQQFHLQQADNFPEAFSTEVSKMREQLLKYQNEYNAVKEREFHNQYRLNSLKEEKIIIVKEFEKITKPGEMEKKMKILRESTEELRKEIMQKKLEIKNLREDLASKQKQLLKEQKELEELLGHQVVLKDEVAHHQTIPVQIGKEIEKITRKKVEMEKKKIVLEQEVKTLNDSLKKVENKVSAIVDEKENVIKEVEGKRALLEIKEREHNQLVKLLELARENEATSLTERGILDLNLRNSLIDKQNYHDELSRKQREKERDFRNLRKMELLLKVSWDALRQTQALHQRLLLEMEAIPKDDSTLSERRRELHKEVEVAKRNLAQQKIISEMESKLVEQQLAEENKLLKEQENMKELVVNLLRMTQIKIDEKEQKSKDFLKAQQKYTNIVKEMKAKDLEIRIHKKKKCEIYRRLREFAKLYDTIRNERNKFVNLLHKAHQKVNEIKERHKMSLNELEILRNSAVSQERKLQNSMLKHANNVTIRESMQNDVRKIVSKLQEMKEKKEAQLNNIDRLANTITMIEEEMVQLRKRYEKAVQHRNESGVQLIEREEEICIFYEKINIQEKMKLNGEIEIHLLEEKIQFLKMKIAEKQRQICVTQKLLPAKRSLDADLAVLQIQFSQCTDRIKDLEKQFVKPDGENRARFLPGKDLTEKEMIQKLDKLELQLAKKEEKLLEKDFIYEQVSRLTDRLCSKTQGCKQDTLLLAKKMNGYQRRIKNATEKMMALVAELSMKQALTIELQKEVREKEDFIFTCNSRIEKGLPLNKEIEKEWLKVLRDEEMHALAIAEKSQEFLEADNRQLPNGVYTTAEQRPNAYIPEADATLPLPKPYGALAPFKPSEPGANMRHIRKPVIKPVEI

Variants of: B1
Settings: with ubql1_human UBQLN1, Q9UMX0
Chain of ubql1_human UBQLN1, Q9UMX0 (Q9UMX0 whole entry): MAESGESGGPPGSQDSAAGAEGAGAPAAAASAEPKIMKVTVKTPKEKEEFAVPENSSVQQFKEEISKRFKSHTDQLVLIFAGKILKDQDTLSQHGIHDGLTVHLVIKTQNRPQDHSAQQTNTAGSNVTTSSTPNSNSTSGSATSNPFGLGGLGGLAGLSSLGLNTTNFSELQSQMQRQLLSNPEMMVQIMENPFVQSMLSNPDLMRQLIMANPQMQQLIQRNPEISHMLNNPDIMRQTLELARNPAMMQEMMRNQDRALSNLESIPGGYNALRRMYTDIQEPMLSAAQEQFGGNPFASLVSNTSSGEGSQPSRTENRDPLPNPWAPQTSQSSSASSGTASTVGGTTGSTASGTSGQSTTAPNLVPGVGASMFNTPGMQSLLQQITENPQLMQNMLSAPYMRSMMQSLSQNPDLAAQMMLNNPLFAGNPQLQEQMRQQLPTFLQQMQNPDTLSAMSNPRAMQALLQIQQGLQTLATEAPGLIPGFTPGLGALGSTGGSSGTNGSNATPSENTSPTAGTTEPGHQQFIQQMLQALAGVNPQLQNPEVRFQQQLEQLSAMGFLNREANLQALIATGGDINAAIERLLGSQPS

effect of a mutation on the interaction | Variant
with no effect | E148G

Variants of: B1
Settings: with bag6_human BAG6, P46379
Chain of bag6_human BAG6, P46379 (P46379 whole entry): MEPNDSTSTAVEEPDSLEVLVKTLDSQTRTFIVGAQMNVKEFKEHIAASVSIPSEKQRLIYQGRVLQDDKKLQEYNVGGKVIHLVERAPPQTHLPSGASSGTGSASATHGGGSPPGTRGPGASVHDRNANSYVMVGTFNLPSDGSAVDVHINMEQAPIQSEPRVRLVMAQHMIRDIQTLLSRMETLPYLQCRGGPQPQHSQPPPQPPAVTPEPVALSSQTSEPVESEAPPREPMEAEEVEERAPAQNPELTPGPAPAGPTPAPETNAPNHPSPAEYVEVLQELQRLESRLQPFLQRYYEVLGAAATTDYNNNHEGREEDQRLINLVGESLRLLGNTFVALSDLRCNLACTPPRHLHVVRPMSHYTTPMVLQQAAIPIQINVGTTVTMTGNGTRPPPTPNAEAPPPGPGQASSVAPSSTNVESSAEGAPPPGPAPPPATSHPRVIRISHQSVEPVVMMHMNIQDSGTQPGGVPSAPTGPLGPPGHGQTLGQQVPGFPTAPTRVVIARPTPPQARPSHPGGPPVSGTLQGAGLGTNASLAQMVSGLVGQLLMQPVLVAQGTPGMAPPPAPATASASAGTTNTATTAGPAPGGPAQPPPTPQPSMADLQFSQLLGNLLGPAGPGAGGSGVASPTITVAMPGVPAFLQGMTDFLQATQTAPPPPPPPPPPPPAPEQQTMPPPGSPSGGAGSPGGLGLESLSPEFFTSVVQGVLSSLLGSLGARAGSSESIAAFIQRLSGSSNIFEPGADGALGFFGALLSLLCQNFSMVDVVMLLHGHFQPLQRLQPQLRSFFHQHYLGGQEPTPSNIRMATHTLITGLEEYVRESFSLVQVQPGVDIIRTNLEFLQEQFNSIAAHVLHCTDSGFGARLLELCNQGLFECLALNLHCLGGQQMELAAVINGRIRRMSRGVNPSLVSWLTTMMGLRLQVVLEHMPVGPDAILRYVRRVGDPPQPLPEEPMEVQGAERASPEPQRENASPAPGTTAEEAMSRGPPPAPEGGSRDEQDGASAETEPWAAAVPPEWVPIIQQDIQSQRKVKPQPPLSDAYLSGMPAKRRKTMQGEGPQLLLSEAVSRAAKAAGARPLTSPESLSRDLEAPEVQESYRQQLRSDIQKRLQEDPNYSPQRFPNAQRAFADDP

effect of a mutation on the interaction | Variant
with no effect | E148G

Variants of: B2
Settings: with lce1b_human LCE1B

effect of a mutation on the interaction | Variant
with no effect | A115T
with no effect | R74Q

Variants of: B3
Settings: with shc1_human SHC1, P29353

effect of a mutation on the interaction | Variant
with no effect | E222K

Variants of: B4
Settings: with srsf7_human SRSF7, Q16629

effect of a mutation on the interaction | Variant
with no effect | K368Q

Variants of: B5
Settings: with pkhf2_human PLEKHF2, Q9H8W4

effect of a mutation on the interaction | Variant
disrupting interaction strength | R8Q

Variants of: B6
Settings: with cor1a_human CORO1A

effect of a mutation on the interaction | Variant
with no effect | K333T
with no effect | E720K

Variants of: B7
Settings: with ctsr1_human CATSPER1, Q8NEC5

effect of a mutation on the interaction | Variant
with no effect | R74Q
with no effect | A115T

Variants of: B8
Settings: with cc146_human CCDC146, Q8IYE0

effect of a mutation on the interaction | Variant
with no effect | E167D
